± gives the uncertainty stated by the source.
B1: Cullin-9, residues 2234 to 2275; numbered along this chain, Q8IWT3 (parent)
chain: KRCPSCQAPIEKNEGCLHMTCAKCNHGFCWRCLKSWKPNHKD

Variants of: B1
Experiment: abundance fitness (aPCA) (normalised: wild type 0, dead -1); higher = more abundant; growth selection in yeast, the domain comes from the species named
Details: Homo sapiens

For KRCPSCQAPIEKNEGCLHMTCAKCNHGFCWRCLTSWKPNHKD [K34T], which abundance fitness is on record?
The abundance fitness was -0.313 ± 0.15.

With KRCPSCQAPIEKNEGCLHMTCAKCNHGFCWRCLCSWKPNHKD [K34C] as the variant, how does the abundance fitness read?
The abundance fitness was -0.341 ± 0.13.

Which abundance fitness does the source give for KRCPSCQAPIEKNEGCLHMTCAKCNHGFCWRCLISWKPNHKD [K34I] here?
Its abundance fitness is -0.539 ± 0.14.

For KRCPSCQAPIEKNEGCLHMTCAKCNHGFCWRCLESWKPNHKD [K34E], which abundance fitness is on record?
The abundance fitness was 0.045 ± 0.092.

Which abundance fitness does the source give for KRCPSCQAPIEKNEGCLHMTCAKCNHGFCWRCLFSWKPNHKD [K34F] here?
Its abundance fitness is -0.378 ± 0.18.

With KRCPSCQAPIEKNEGCLHMTCAKCNHGFCWRCLDSWKPNHKD [K34D] as the variant, how does the abundance fitness read?
Its abundance fitness is -0.376 ± 0.24.

With KRCPSCQAPIEKNEGCLHMTCAKCNHGFCWRCLASWKPNHKD [K34A] as the variant, how does the abundance fitness read?
The abundance fitness was -0.431 ± 0.092.

For KRCPSCQAPIEKNEGCLHMTCAKCNHGFCWRCLPSWKPNHKD [K34P], which abundance fitness is on record?
Its abundance fitness is -0.363 ± 0.12.

With KRCPSCQAPIEKNEGCLHMTCAKCNHGFCWRCLQSWKPNHKD [K34Q] as the variant, how does the abundance fitness read?
The abundance fitness was -0.128 ± 0.18.

For KRCPSCQAPIEKNEGCLHMTCAKCNHGFCWRCLWSWKPNHKD [K34W], which abundance fitness is on record?
The abundance fitness was -0.765 ± 0.11.

With KRCPSCQAPIEKNEGCLHMTCAKCNHGFCWRCLMSWKPNHKD [K34M] as the variant, how does the abundance fitness read?
Its abundance fitness is -0.374 ± 0.13.

Which abundance fitness does the source give for KRCPSCQAPIEKNEGCLHMTCAKCNHGFCWRCLNSWKPNHKD [K34N] here?
Its abundance fitness is -0.579 ± 0.23.

Which abundance fitness does the source give for KRCPSCQAPIEKNEGCLHMTCAKCNHGFCWRRLKSWKPNHKD [C32R] here?
The abundance fitness was -0.894 ± 0.098.

For KRCPSCQAPIEKNEGCLHMTCAKCNHGFCWRTLKSWKPNHKD [C32T], which abundance fitness is on record?
Its abundance fitness is -0.485 ± 0.15.

For KRCPSCQAPIEKNEGCLHMTCAKCNHGFCWRVLKSWKPNHKD [C32V], which abundance fitness is on record?
Its abundance fitness is -0.983 ± 0.12.

For KRCPSCQAPIEKNEGCLHMTCAKCNHGFCWRNLKSWKPNHKD [C32N], which abundance fitness is on record?
The abundance fitness was -0.472 ± 0.18.

For KRCPSCQAPIEKNEGCLHMTCAKCNHGFCWRELKSWKPNHKD [C32E], which abundance fitness is on record?
The abundance fitness was -0.117 ± 0.094.

Which abundance fitness does the source give for KRCPSCQAPIEKNEGCLHMTCAKCNHGFCWRLLKSWKPNHKD [C32L] here?
Its abundance fitness is -0.939 ± 0.11.

With KRCPSCQAPIEKNEGCLHMTCAKCNHGFCWRALKSWKPNHKD [C32A] as the variant, how does the abundance fitness read?
Its abundance fitness is -0.632 ± 0.095.

For KRCPSCQAPIEKNEGCLHMTCAKCNHGFCWRGLKSWKPNHKD [C32G], which abundance fitness is on record?
The abundance fitness was -0.668 ± 0.081.

For KRCPSCQAPIEKNEGCLHMTCAKCNHGFCWRHLKSWKPNHKD [C32H], which abundance fitness is on record?
Its abundance fitness is -1.17 ± 0.22.

Which abundance fitness does the source give for KRCPSCQAPIEKNEGCLHMTCAKCNHGFCWRPLKSWKPNHKD [C32P] here?
Its abundance fitness is -0.959 ± 0.14.

For KRCPSCQAPIEKNEGCLHMTCAKCNHGFCWRMLKSWKPNHKD [C32M], which abundance fitness is on record?
Its abundance fitness is -0.545 ± 0.14.

For KRCPSCQAPIEKNEGCLHMTCAKCNHGFCWRKLKSWKPNHKD [C32K], which abundance fitness is on record?
The abundance fitness was -0.677 ± 0.18.

Which abundance fitness does the source give for KRCPSCQAPIEKNEGCLHMTCAKCNHGFCWRQLKSWKPNHKD [C32Q] here?
Its abundance fitness is -0.726 ± 0.12.

Which abundance fitness does the source give for KRCPSCQAPIEKNEGCLHMTCAKCNHGFCWRWLKSWKPNHKD [C32W] here?
The abundance fitness was -0.744 ± 0.12.

With KRCPSCQAPIEKNEGCLHMTCAKCNHGFCWRFLKSWKPNHKD [C32F] as the variant, how does the abundance fitness read?
The abundance fitness was -0.744 ± 0.17.

For KRCPSCQAPIEKNEGCLHMTCAKCNHGFCWRDLKSWKPNHKD [C32D], which abundance fitness is on record?
The abundance fitness was -0.199 ± 0.11.

With KRCPSCQAPIEKNEGCLHMTCAKCNHGFCWRSLKSWKPNHKD [C32S] as the variant, how does the abundance fitness read?
The abundance fitness was -0.747 ± 0.1.

With KRCPSCQAPIEKNEGCLHMTCAKCNHGFCVRCLKSWKPNHKD [W30V] as the variant, how does the abundance fitness read?
Its abundance fitness is -0.056 ± 0.085.

For KRCPSCQAPIEKNEGCLHMTCAKCNHGFCGRCLKSWKPNHKD [W30G], which abundance fitness is on record?
Its abundance fitness is 0.162 ± 0.07.

For KRCPSCQAPIEKNEGCLHMTCAKCNHGFCMRCLKSWKPNHKD [W30M], which abundance fitness is on record?
The abundance fitness was -0.223 ± 0.12.

With KRCPSCQAPIEKNEGCLHMTCAKCNHGFCPRCLKSWKPNHKD [W30P] as the variant, how does the abundance fitness read?
Its abundance fitness is 0.134 ± 0.11.

For KRCPSCQAPIEKNEGCLHMTCAKCNHGFCERCLKSWKPNHKD [W30E], which abundance fitness is on record?
Its abundance fitness is 0.016 ± 0.11.

For KRCPSCQAPIEKNEGCLHMTCAKCNHGFCDRCLKSWKPNHKD [W30D], which abundance fitness is on record?
Its abundance fitness is 0.019 ± 0.25.

With KRCPSCQAPIEKNEGCLHMTCAKCNHGFCQRCLKSWKPNHKD [W30Q] as the variant, how does the abundance fitness read?
Its abundance fitness is -0.05 ± 0.12.

With KRCPSCQAPIEKNEGCLHMTCAKCNHGFCHRCLKSWKPNHKD [W30H] as the variant, how does the abundance fitness read?
Its abundance fitness is -0.069 ± 0.21.

Which abundance fitness does the source give for KRCPSCQAPIEKNEGCLHMTCAKCNHGFCSRCLKSWKPNHKD [W30S] here?
Its abundance fitness is -0.101 ± 0.11.

Which abundance fitness does the source give for KRCPSCQAPIEKNEGCLHMTCAKCNHGFCLRCLKSWKPNHKD [W30L] here?
Its abundance fitness is -0.156 ± 0.083.

With KRCPSCQAPIEKNEGCLHMTCAKCNHGFCCRCLKSWKPNHKD [W30C] as the variant, how does the abundance fitness read?
The abundance fitness was -1.09 ± 0.24.

With KRCPSCQAPIEKNEGCLHMTCAKCNHGFCIRCLKSWKPNHKD [W30I] as the variant, how does the abundance fitness read?
Its abundance fitness is -0.258 ± 0.12.

With KRCPSCQAPIEKNEGCLHMTCAKCNHGFCKRCLKSWKPNHKD [W30K] as the variant, how does the abundance fitness read?
The abundance fitness was -0.366 ± 0.15.

For KRCPSCQAPIEKNEGCLHMTCAKCNHGFCFRCLKSWKPNHKD [W30F], which abundance fitness is on record?
Its abundance fitness is -0.162 ± 0.14.

Which abundance fitness does the source give for KRCPSCQAPIEKNEGCLHMTCAKCNHGFCWKCLKSWKPNHKD [R31K] here?
The abundance fitness was 0.371 ± 0.11.

For KRCPSCQAPIEKNEGCLHMTCAKCNHGFCWECLKSWKPNHKD [R31E], which abundance fitness is on record?
The abundance fitness was 0.162 ± 0.091.

Which abundance fitness does the source give for KRCPSCQAPIEKNEGCLHMTCAKCNHGFCWYCLKSWKPNHKD [R31Y] here?
The abundance fitness was 0.212 ± 0.17.

For KRCPSCQAPIEKNEGCLHMTCAKCNHGFCWFCLKSWKPNHKD [R31F], which abundance fitness is on record?
Its abundance fitness is -0.258 ± 0.14.

For KRCPSCQAPIEKNEGCLHMTCAKCNHGFCWQCLKSWKPNHKD [R31Q], which abundance fitness is on record?
Its abundance fitness is 0.208 ± 0.11.

For KRCPSCQAPIEKNEGCLHMTCAKCNHGFCWWCLKSWKPNHKD [R31W], which abundance fitness is on record?
The abundance fitness was -0.025 ± 0.096.

Which abundance fitness does the source give for KRCPSCQAPIEKNEGCLHMTCAKCNHGFCWGCLKSWKPNHKD [R31G] here?
The abundance fitness was 0.128 ± 0.081.

For KRCPSCQAPIEKNEGCLHMTCAKCNHGFCWPCLKSWKPNHKD [R31P], which abundance fitness is on record?
Its abundance fitness is -0.17 ± 0.12.

For KRCPSCQAPIEKNEGCLHMTCAKCNHGFCWICLKSWKPNHKD [R31I], which abundance fitness is on record?
The abundance fitness was -0.072 ± 0.17.

Which abundance fitness does the source give for KRCPSCQAPIEKNEGCLHMTCAKCNHGFCWVCLKSWKPNHKD [R31V] here?
The abundance fitness was 0.128 ± 0.087.

For KRCPSCQAPIEKNEGCLHMTCAKCNHGFCWNCLKSWKPNHKD [R31N], which abundance fitness is on record?
Its abundance fitness is 0.17 ± 0.17.

For KRCPSCQAPIEKNEGCLHMTCAKCNHGFCWTCLKSWKPNHKD [R31T], which abundance fitness is on record?
The abundance fitness was 0.03 ± 0.11.

Which abundance fitness does the source give for KRCPSCQAPIEKNEGCLHMTCAKCNHGFCWCCLKSWKPNHKD [R31C] here?
Its abundance fitness is 0.055 ± 0.13.

For KRCPSCQAPIEKNEGCLHMTCAKCNHGFCWHCLKSWKPNHKD [R31H], which abundance fitness is on record?
Its abundance fitness is 0.078 ± 0.15.

Which abundance fitness does the source give for KRCPSCQAPIEKNEGCLHMTCAKCNHGFCWDCLKSWKPNHKD [R31D] here?
The abundance fitness was 0.119 ± 0.11.

With KRCPSCQAPIEKNEGCLHMTCAKCNHGFCWSCLKSWKPNHKD [R31S] as the variant, how does the abundance fitness read?
Its abundance fitness is -0.065 ± 0.09.

With KRCPSCQAPIEKNEGCLHMTCAKCNHGFCWACLKSWKPNHKD [R31A] as the variant, how does the abundance fitness read?
Its abundance fitness is -0.026 ± 0.076.

From the Human Domainome abundance scans (Beltran et al. 2025)
